Laboratory results from patent publication US20260217791A1 (COMPLEMENT THERAPEUTICS, published 2026).

Biological target: human C3b (human, UniProt P01024 23-667; P01024 749-1663, limits assumed)
Experiment: cell-based or functional assay

Sequence of human C3b (P01024 23-667 limits assumed, form in doubt, chain 1 of 2): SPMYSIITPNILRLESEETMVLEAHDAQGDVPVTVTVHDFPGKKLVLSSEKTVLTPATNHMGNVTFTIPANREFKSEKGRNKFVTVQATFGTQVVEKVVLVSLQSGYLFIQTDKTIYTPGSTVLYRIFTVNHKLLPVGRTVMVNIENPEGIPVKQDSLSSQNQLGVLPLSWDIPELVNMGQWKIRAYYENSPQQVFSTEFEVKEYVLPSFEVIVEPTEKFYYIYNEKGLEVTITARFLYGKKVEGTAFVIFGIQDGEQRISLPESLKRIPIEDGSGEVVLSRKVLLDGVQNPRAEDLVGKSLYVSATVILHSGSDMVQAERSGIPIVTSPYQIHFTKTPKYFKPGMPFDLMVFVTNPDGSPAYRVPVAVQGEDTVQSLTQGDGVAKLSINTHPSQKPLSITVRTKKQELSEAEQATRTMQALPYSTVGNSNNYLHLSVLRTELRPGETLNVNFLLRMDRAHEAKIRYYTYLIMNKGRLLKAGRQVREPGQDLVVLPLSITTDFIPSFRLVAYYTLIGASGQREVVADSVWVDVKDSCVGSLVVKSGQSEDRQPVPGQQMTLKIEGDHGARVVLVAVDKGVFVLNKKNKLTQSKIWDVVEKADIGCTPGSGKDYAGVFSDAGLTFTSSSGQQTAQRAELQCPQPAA
Sequence of human C3b (P01024 749-1663 limits assumed, form in doubt, chain 2 of 2): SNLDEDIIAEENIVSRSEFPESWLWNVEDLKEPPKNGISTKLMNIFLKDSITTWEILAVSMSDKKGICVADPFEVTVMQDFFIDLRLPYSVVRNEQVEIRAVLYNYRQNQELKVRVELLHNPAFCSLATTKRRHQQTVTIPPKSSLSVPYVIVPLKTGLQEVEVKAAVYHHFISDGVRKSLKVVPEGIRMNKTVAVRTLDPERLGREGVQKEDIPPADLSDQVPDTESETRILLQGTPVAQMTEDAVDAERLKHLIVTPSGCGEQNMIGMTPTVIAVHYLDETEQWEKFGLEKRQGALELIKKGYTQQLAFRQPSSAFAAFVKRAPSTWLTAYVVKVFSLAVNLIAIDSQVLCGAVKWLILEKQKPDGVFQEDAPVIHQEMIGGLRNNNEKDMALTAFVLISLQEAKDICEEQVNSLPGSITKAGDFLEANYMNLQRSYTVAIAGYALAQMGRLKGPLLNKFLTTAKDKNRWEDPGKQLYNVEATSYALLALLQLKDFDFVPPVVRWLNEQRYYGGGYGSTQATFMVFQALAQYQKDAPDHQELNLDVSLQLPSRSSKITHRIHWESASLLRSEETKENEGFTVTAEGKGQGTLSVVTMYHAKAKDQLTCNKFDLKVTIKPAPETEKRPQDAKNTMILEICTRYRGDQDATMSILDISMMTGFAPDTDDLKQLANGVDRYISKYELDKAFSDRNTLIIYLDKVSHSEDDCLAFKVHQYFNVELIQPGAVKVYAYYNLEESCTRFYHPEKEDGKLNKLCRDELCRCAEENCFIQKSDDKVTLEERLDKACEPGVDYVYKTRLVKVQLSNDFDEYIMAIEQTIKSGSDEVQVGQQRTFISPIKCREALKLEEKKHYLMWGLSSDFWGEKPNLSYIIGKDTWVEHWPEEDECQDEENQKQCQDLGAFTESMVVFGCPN

B1: small polypeptide comprising CCPs 8-10 of CR1 (SEQ ID NO:3) (receptor)
chain: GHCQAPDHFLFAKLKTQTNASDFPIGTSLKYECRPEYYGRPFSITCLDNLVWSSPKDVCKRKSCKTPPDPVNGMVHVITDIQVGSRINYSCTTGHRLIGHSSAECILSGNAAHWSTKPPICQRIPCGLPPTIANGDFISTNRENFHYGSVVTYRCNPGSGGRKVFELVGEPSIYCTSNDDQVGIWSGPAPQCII
IC50 of inhibition of MAC formation in zymosan activated human serum (Wieslab Complement system Screen kit ELISA, FIG. 9): 125 nM
